Experimental data reported in IntAct's records for PubMed 11583623.

B1: Serine protease HTRA2, mitochondrial (Homo sapiens), O43464 (parent)
chain: MAAPRAGRGAGWSLRAWRALGGIRWGRRPRLTPDLRALLTSGTSDPRARVTYGTPSLWARLSVGVTEPRACLTSGTPGPRAQLTAVTPDTRTREASENSGTRSRAWLAVALGAGGAVLLLLWGGGRGPPAVLAAVPSPPPASPRSQYNFIADVVEKTAPAVVYIEILDRHPFLGREVPISNGSGFVVAADGLIVTNAHVVADRRRVRVRLLSGDTYEAVVTAVDPVADIATLRIQTKEPLPTLPLGRSADVRQGEFVVAMGSPFALQNTITSGIVSSAQRPARDLGLPQTNVEYIQTDAAIDFGNSGGPLVNLDGEVIGVNTMKVTAGISFAIPSDRLREFLHRGEKKNSSSGISGSQRRYIGVMMLTLSPSILAELQLREPSFPDVQHGVLIHKVILGSPAHRAGLRPGDVILAIGEQMVQNAEDVYEAVRTQSQLAVQIRRGRETLTLYVTPEVTE

Variants of: B1
Conditions: with xiap_human XIAP

Question: For MAAPRAGRGAGWSLRAWRALGGIRWGRRPRLTPDLRALLTSGTSDPRARVTYGTPSLWARLSVGVTEPRACLTSGTPGPRAQLTAVTPDTRTREASENSGTRSRAWLAVALGAGGAVLLLLWGGGRGPPAVLAMVPSPPPASPRSQYNFIADVVEKTAPAVVYIEILDRHPFLGREVPISNGSGFVVAADGLIVTNAHVVADRRRVRVRLLSGDTYEAVVTAVDPVADIATLRIQTKEPLPTLPLGRSADVRQGEFVVAMGSPFALQNTITSGIVSSAQRPARDLGLPQTNVEYIQTDAAIDFGNSGGPLVNLDGEVIGVNTMKVTAGISFAIPSDRLREFLHRGEKKNSSSGISGSQRRYIGVMMLTLSPSILAELQLREPSFPDVQHGVLIHKVILGSPAHRAGLRPGDVILAIGEQMVQNAEDVYEAVRTQSQLAVQIRRGRETLTLYVTPEVTE [A134M], which “effect of a mutation on the interaction” value is on record?
Answer: disrupting interaction
